Measurements taken from article PMC9253678, “Computer-Aided Design of α-L-Rhamnosidase to Increase the Synthesis Efficiency of Icariside I” (Frontiers in Bioengineering and Biotechnology, 2022).

Substrate: COc1ccc(-c2oc3c(CC=C(C)C)c(O[C@@H]4O[C@H](CO)[C@@H](O)[C@H](O)[C@H]4O)cc(O)c3c(=O)c2O[C@@H]2O[C@@H](C)[C@H](O)[C@@H](O)[C@H]2O)cc1
Test: HPLC of icariside I formation, Michaelis-Menten nonlinear fit
Type: biochemical, Thermotoga petrophila
From the text: HPLC of icariside I formation, Michaelis-Menten nonlinear fit on […]

[1] = optimal conditions of the mutant: 85°C, pH 4.6, icariin 0.1–4 mg/ml
[2] = optimal conditions of the enzyme: 80°C, pH 5.0, disodium hydrogen phosphate-citrate buffer, icariin 0.1–4 mg/ml
[3] = optimal conditions of the mutant: 80°C, pH 5.0, icariin 0.1–4 mg/ml
[4] = optimal conditions of the mutant: 85°C, pH 5.0, icariin 0.1–4 mg/ml
[5] = optimal conditions of the mutant: 80°C, pH 6.0, icariin 0.1–4 mg/ml

B1: TpeRha (Thermotoga petrophila RKU-1; D506A/H570A/K579A) (protein)
chain: MIQACDLRCEYLTSPVLGLDVIPRFSWRLKGNGKKQTRYKIIVSDNFDDIERGIGNVWESEKDSSKNLNIEYEGPKLKAYKGYYWRVKLWDEKENGPWSETAYFEMGPLEDWRGKWITMPSPLSFKDPAHRHELFYAMYFRKEFLLNKEVEKARVYVSGLGVYELHLNGKRVGNNVLDPAPTDYNKVALYSTYDVTQYLTTGKNTIGVILGNGRHIRDYGYSKPKLYLQLLVFYKDGSREFICSDETWKVSHGPLKENGIYFGEVYDARDEISGWDSPGFDDRNWSEVEIVEGPSLKAQLIPVIRVCEVIKPKRLWLSSRGTFIVDFGKNISGWVKLRVNNGKRGEKIIIRYAEVLDPSMDRLDTRNLRLARATDEYILKGQGVEIYEPRFTYHGFRYVEVEDYPGTLTSDNIEAMFVHTDVEKVGDFACSSELLNKIHSCVVNSQLANLMGIPTDCPQRDERMGWLGDAQLTVEEAMYNFDMAAFYTKYLMDIKLSQKEDGSISAVAPPYWKRYPSDPAWGTAYATILWYLYFFYEDRRVLEEHYDSLKRYVEFLRKNSPNHLTKLGQAGDWCPPGDAFPKRTPLILTSTWYYYHDTLILSEIAKILGKKEDEHEYRKLAGEIKEAFNRHFLRKVEDHTGRIVCFYRGIKLSPKDRIPTTQTCNVLPLWNKMVPEECREDVFKVLERLIEVDNDTHFDTGIVGTRYILEVLSENGRKDLALKLLLKEDYPSFGYMIKNGATTLWERWEKLEGTGMNSHNHVMLGSVDTWFYKYLSGIKPVAPGWKKIRIEPYFADQIDFVSAKIKTPNGSLEVSWKKQNKEYEIQIIIPVNTVGIFAVPESFKVSAINSKQVSYPSEFELEPGAYNIVLERVREC
notes: codon-optimized synthetic gene in pET-28a, E. coli BL21(DE3), Ni-NTA purified (His tag of vector); model domains span 1-861
[1]
  Km: 1.11 ± 0.34 µM
  Vmax: 6.59 µM/min
  kcat: 0.000212 s⁻¹
  kcat/Km: 191 M⁻¹ s⁻¹

B2: TpeRha (Thermotoga petrophila RKU-1) (protein)
chain: MIQACDLRCEYLTSPVLGLDVIPRFSWRLKGNGKKQTRYKIIVSDNFDDIERGIGNVWESEKDSSKNLNIEYEGPKLKAYKGYYWRVKLWDEKENGPWSETAYFEMGPLEDWRGKWITMPSPLSFKDPAHRHELFYAMYFRKEFLLNKEVEKARVYVSGLGVYELHLNGKRVGNNVLDPAPTDYNKVALYSTYDVTQYLTTGKNTIGVILGNGRHIRDYGYSKPKLYLQLLVFYKDGSREFICSDETWKVSHGPLKENGIYFGEVYDARDEISGWDSPGFDDRNWSEVEIVEGPSLKAQLIPVIRVCEVIKPKRLWLSSRGTFIVDFGKNISGWVKLRVNNGKRGEKIIIRYAEVLDPSMDRLDTRNLRLARATDEYILKGQGVEIYEPRFTYHGFRYVEVEDYPGTLTSDNIEAMFVHTDVEKVGDFACSSELLNKIHSCVVNSQLANLMGIPTDCPQRDERMGWLGDAQLTVEEAMYNFDMAAFYTKYLMDIKLSQKEDGSISDVAPPYWKRYPSDPAWGTAYATILWYLYFFYEDRRVLEEHYDSLKRYVEFLRKNSPNHLTKLGQHGDWCPPGDKFPKRTPLILTSTWYYYHDTLILSEIAKILGKKEDEHEYRKLAGEIKEAFNRHFLRKVEDHTGRIVCFYRGIKLSPKDRIPTTQTCNVLPLWNKMVPEECREDVFKVLERLIEVDNDTHFDTGIVGTRYILEVLSENGRKDLALKLLLKEDYPSFGYMIKNGATTLWERWEKLEGTGMNSHNHVMLGSVDTWFYKYLSGIKPVAPGWKKIRIEPYFADQIDFVSAKIKTPNGSLEVSWKKQNKEYEIQIIIPVNTVGIFAVPESFKVSAINSKQVSYPSEFELEPGAYNIVLERVREC
notes: as for B1
[2]
  Km: 4.33 ± 3.47 µM
  Vmax: 0.098 µM/min
  kcat: 4e-06 s⁻¹
  kcat/Km: 0.923 M⁻¹ s⁻¹

B3: TpeRha (Thermotoga petrophila RKU-1; K579A) (protein)
chain: MIQACDLRCEYLTSPVLGLDVIPRFSWRLKGNGKKQTRYKIIVSDNFDDIERGIGNVWESEKDSSKNLNIEYEGPKLKAYKGYYWRVKLWDEKENGPWSETAYFEMGPLEDWRGKWITMPSPLSFKDPAHRHELFYAMYFRKEFLLNKEVEKARVYVSGLGVYELHLNGKRVGNNVLDPAPTDYNKVALYSTYDVTQYLTTGKNTIGVILGNGRHIRDYGYSKPKLYLQLLVFYKDGSREFICSDETWKVSHGPLKENGIYFGEVYDARDEISGWDSPGFDDRNWSEVEIVEGPSLKAQLIPVIRVCEVIKPKRLWLSSRGTFIVDFGKNISGWVKLRVNNGKRGEKIIIRYAEVLDPSMDRLDTRNLRLARATDEYILKGQGVEIYEPRFTYHGFRYVEVEDYPGTLTSDNIEAMFVHTDVEKVGDFACSSELLNKIHSCVVNSQLANLMGIPTDCPQRDERMGWLGDAQLTVEEAMYNFDMAAFYTKYLMDIKLSQKEDGSISDVAPPYWKRYPSDPAWGTAYATILWYLYFFYEDRRVLEEHYDSLKRYVEFLRKNSPNHLTKLGQHGDWCPPGDAFPKRTPLILTSTWYYYHDTLILSEIAKILGKKEDEHEYRKLAGEIKEAFNRHFLRKVEDHTGRIVCFYRGIKLSPKDRIPTTQTCNVLPLWNKMVPEECREDVFKVLERLIEVDNDTHFDTGIVGTRYILEVLSENGRKDLALKLLLKEDYPSFGYMIKNGATTLWERWEKLEGTGMNSHNHVMLGSVDTWFYKYLSGIKPVAPGWKKIRIEPYFADQIDFVSAKIKTPNGSLEVSWKKQNKEYEIQIIIPVNTVGIFAVPESFKVSAINSKQVSYPSEFELEPGAYNIVLERVREC
notes: as for B1
[3]
  Km: 1.24 ± 0.09 µM
  Vmax: 1.97 µM/min
  kcat: 4.31e-05 s⁻¹
  kcat/Km: 34.7 M⁻¹ s⁻¹

B4: TpeRha (Thermotoga petrophila RKU-1; D506A) (protein)
chain: MIQACDLRCEYLTSPVLGLDVIPRFSWRLKGNGKKQTRYKIIVSDNFDDIERGIGNVWESEKDSSKNLNIEYEGPKLKAYKGYYWRVKLWDEKENGPWSETAYFEMGPLEDWRGKWITMPSPLSFKDPAHRHELFYAMYFRKEFLLNKEVEKARVYVSGLGVYELHLNGKRVGNNVLDPAPTDYNKVALYSTYDVTQYLTTGKNTIGVILGNGRHIRDYGYSKPKLYLQLLVFYKDGSREFICSDETWKVSHGPLKENGIYFGEVYDARDEISGWDSPGFDDRNWSEVEIVEGPSLKAQLIPVIRVCEVIKPKRLWLSSRGTFIVDFGKNISGWVKLRVNNGKRGEKIIIRYAEVLDPSMDRLDTRNLRLARATDEYILKGQGVEIYEPRFTYHGFRYVEVEDYPGTLTSDNIEAMFVHTDVEKVGDFACSSELLNKIHSCVVNSQLANLMGIPTDCPQRDERMGWLGDAQLTVEEAMYNFDMAAFYTKYLMDIKLSQKEDGSISAVAPPYWKRYPSDPAWGTAYATILWYLYFFYEDRRVLEEHYDSLKRYVEFLRKNSPNHLTKLGQHGDWCPPGDKFPKRTPLILTSTWYYYHDTLILSEIAKILGKKEDEHEYRKLAGEIKEAFNRHFLRKVEDHTGRIVCFYRGIKLSPKDRIPTTQTCNVLPLWNKMVPEECREDVFKVLERLIEVDNDTHFDTGIVGTRYILEVLSENGRKDLALKLLLKEDYPSFGYMIKNGATTLWERWEKLEGTGMNSHNHVMLGSVDTWFYKYLSGIKPVAPGWKKIRIEPYFADQIDFVSAKIKTPNGSLEVSWKKQNKEYEIQIIIPVNTVGIFAVPESFKVSAINSKQVSYPSEFELEPGAYNIVLERVREC
notes: as for B1
[4]
  Km: 3.12 ± 0.26 µM
  Vmax: 1.91 µM/min
  kcat: 4.64e-05 s⁻¹
  kcat/Km: 14.9 M⁻¹ s⁻¹

B5: TpeRha (Thermotoga petrophila RKU-1; H570A) (protein)
chain: MIQACDLRCEYLTSPVLGLDVIPRFSWRLKGNGKKQTRYKIIVSDNFDDIERGIGNVWESEKDSSKNLNIEYEGPKLKAYKGYYWRVKLWDEKENGPWSETAYFEMGPLEDWRGKWITMPSPLSFKDPAHRHELFYAMYFRKEFLLNKEVEKARVYVSGLGVYELHLNGKRVGNNVLDPAPTDYNKVALYSTYDVTQYLTTGKNTIGVILGNGRHIRDYGYSKPKLYLQLLVFYKDGSREFICSDETWKVSHGPLKENGIYFGEVYDARDEISGWDSPGFDDRNWSEVEIVEGPSLKAQLIPVIRVCEVIKPKRLWLSSRGTFIVDFGKNISGWVKLRVNNGKRGEKIIIRYAEVLDPSMDRLDTRNLRLARATDEYILKGQGVEIYEPRFTYHGFRYVEVEDYPGTLTSDNIEAMFVHTDVEKVGDFACSSELLNKIHSCVVNSQLANLMGIPTDCPQRDERMGWLGDAQLTVEEAMYNFDMAAFYTKYLMDIKLSQKEDGSISDVAPPYWKRYPSDPAWGTAYATILWYLYFFYEDRRVLEEHYDSLKRYVEFLRKNSPNHLTKLGQAGDWCPPGDKFPKRTPLILTSTWYYYHDTLILSEIAKILGKKEDEHEYRKLAGEIKEAFNRHFLRKVEDHTGRIVCFYRGIKLSPKDRIPTTQTCNVLPLWNKMVPEECREDVFKVLERLIEVDNDTHFDTGIVGTRYILEVLSENGRKDLALKLLLKEDYPSFGYMIKNGATTLWERWEKLEGTGMNSHNHVMLGSVDTWFYKYLSGIKPVAPGWKKIRIEPYFADQIDFVSAKIKTPNGSLEVSWKKQNKEYEIQIIIPVNTVGIFAVPESFKVSAINSKQVSYPSEFELEPGAYNIVLERVREC
notes: as for B1
[5]
  Km: 0.92 ± 0.08 µM
  Vmax: 1.19 µM/min
  kcat: 3.64e-05 s⁻¹
  kcat/Km: 39.5 M⁻¹ s⁻¹

B6: TpeRha (Thermotoga petrophila RKU-1; D506A/H570A) (protein)
chain: MIQACDLRCEYLTSPVLGLDVIPRFSWRLKGNGKKQTRYKIIVSDNFDDIERGIGNVWESEKDSSKNLNIEYEGPKLKAYKGYYWRVKLWDEKENGPWSETAYFEMGPLEDWRGKWITMPSPLSFKDPAHRHELFYAMYFRKEFLLNKEVEKARVYVSGLGVYELHLNGKRVGNNVLDPAPTDYNKVALYSTYDVTQYLTTGKNTIGVILGNGRHIRDYGYSKPKLYLQLLVFYKDGSREFICSDETWKVSHGPLKENGIYFGEVYDARDEISGWDSPGFDDRNWSEVEIVEGPSLKAQLIPVIRVCEVIKPKRLWLSSRGTFIVDFGKNISGWVKLRVNNGKRGEKIIIRYAEVLDPSMDRLDTRNLRLARATDEYILKGQGVEIYEPRFTYHGFRYVEVEDYPGTLTSDNIEAMFVHTDVEKVGDFACSSELLNKIHSCVVNSQLANLMGIPTDCPQRDERMGWLGDAQLTVEEAMYNFDMAAFYTKYLMDIKLSQKEDGSISAVAPPYWKRYPSDPAWGTAYATILWYLYFFYEDRRVLEEHYDSLKRYVEFLRKNSPNHLTKLGQAGDWCPPGDKFPKRTPLILTSTWYYYHDTLILSEIAKILGKKEDEHEYRKLAGEIKEAFNRHFLRKVEDHTGRIVCFYRGIKLSPKDRIPTTQTCNVLPLWNKMVPEECREDVFKVLERLIEVDNDTHFDTGIVGTRYILEVLSENGRKDLALKLLLKEDYPSFGYMIKNGATTLWERWEKLEGTGMNSHNHVMLGSVDTWFYKYLSGIKPVAPGWKKIRIEPYFADQIDFVSAKIKTPNGSLEVSWKKQNKEYEIQIIIPVNTVGIFAVPESFKVSAINSKQVSYPSEFELEPGAYNIVLERVREC
notes: as for B1
[1]
  Km: 0.51 ± 0.13 µM
  Vmax: 2.5 µM/min
  kcat: 9.87e-05 s⁻¹
  kcat/Km: 194 M⁻¹ s⁻¹
